Test results reported in patent US20040101905A1, “Product” (priority 2000, published 2004).

Tests used:
[1] = biological target: T1, SC (secretory component, extracellular portion of the poly Ig receptor) (Homo sapiens, UniProt P01833); experiment: ELISA of phage binding to immobilised SC; settings: for SC binding of single phage clones (ELISA): immobilised colostrum SC
T1 construct: “secretory component”—the extracellular portion of the poly Ig receptor; from tissue; host or cells: human colostrum
T1 sequence (P01833 19-603 limits assumed): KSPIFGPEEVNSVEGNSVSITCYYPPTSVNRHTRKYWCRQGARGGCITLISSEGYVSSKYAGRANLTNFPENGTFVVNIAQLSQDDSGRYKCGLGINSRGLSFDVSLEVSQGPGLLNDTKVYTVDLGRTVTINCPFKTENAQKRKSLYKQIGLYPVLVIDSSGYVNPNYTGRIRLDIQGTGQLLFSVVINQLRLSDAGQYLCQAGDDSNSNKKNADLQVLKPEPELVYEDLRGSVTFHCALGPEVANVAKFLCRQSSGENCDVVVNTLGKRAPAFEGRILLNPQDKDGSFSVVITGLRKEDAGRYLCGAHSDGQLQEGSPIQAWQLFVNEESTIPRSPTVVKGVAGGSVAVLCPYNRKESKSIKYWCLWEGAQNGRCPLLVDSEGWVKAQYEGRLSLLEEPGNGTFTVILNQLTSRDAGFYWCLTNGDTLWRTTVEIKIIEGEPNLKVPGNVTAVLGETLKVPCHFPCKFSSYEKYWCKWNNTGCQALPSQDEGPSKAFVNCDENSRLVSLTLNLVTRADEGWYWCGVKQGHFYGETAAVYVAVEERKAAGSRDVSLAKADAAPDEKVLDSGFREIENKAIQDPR
Procedure: Affinity selection: Free SC purified from human colostrum by Jackaline-Sepharose column (Pharmacia Biotech, Uppsala, Sweden) (Brandtzaeg P. Scand. J. Immunol. 1974, 3:579-88) was used. SC was immobilised in Nunc MaxiSorp (Costar) tubes at approximately 30 μg/ml in a volume of 500 μl in each tube at 4° C. ON. The tubes were blocked with 1% BSA or 1% milk powder in PBS for 1 h at RT. Approximately 10^10 TU from each library were pre incubated with PBS and 1% BSA or 1% milk powder (1:1) for 1 h at 4° C. before they were added to the tubes and incubated at RT for 1.5 h. The tubes were washed 6 times with PBS/0.05% Tween 20. Bound phage were eluted by incubation with 500 μl 0.1M HCl-glycine pH 2.2 for 10 min and neutralised with 75 μl 0.1M Tris pH 9.1. Phage were amplified essentially as described by Smith and Scott (Methods Enzymol., 1993, 217:228-257) and two additional rounds of affinity selection were performed.
ELISA assay. The purified colostrum SC was coated at 30 μg/ml in Nunc MaxiSorb wells in PBS at 4° C. ON. The wells were blocked with 200 μl PBS with 1% BSA or 1% milk powder for 1 h at RT. Phage supernatants from amplified eluates or single colonies were diluted 1:1 in blocking buffer, added to the wells and allowed to react with immobilsed SC for 1.5 h at RT. The wells were washed 6 times with PBS/0.05% Tween and bound phage were detected by adding a horse radish peroxidase (HRP)/Anti-M13 IgG conjugate (Pharmacia) 1:4000 in PBS with 1% BSA or 1% milk powder. After incubation for 1 h at RT, washing with PBS/[…] and addition of ABTS substrate solution (ABTS tablets from Boehringer Mannheim in citrate buffer, pH 4.0) the ABTS-HRP reactions were read in a microtiter plate reader set at […] (Dynatech MR 700).

FcγRI receptor = biological target: T2, FcγRI receptor (Homo sapiens, UniProt P12314); experiment: Affinity selection of phage displayed peptides on IFN-γ stimulated U937 cells (FcγRI binding)
T2 construct: To increase FcγRI expression the U937-cells were treated with 100 U/ml IFN-γ for 40 hours; endogenous in cells; host or cells: U937 cells stimulated with IFN-γ
T2 sequence (P12314 16-374): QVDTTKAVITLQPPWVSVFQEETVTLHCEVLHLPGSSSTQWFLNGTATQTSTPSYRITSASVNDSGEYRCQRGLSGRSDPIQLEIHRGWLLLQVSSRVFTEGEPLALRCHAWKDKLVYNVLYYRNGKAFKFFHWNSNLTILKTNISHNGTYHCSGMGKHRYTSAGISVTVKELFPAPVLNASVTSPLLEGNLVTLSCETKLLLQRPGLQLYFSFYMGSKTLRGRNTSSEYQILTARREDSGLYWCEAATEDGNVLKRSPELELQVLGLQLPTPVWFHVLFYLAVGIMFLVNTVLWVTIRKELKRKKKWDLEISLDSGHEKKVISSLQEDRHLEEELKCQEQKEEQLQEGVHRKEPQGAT
Procedure: (§1) Affinity selection: For affinity selection, […] stimulated U937cells were washed in 20 ml pan-wash buffer (PBS pH7.4, 1% BSA, 1 mMCaCl2, 10 mMMgCl2) and then resuspended in 1 ml pan-wash buffer. Portions (1×10^10 E. coli K91K transducing units (TU)) of each library were added to the cells. Cells and phages were incubated with agitation for 1.5 hours at 4° C. Unbound phages were removed by washing the cells 6 times with 2 ml pan-wash buffer. Bound phages were eluted in 200 μl 0.1M HCl-glycine pH 2.2 for 10 minutes on ice. The eluates were neutralised with 17 μl 1.5M Tris pH 8.8. Phages were amplified (essentially as described in Smith and Scott Methods Enzymol. 1993;217:228-57). A second round of affinity selection was performed using an input of 10^9 phages.
Peptide sequences of affinity selected phage clones: PCR products covering the peptide coding insert were created using the primers fUSE5 for (5′ […] 3′) and fUSE5 (5′[…] 3′). The PCR products were sequenced (GATC/GmBh Germany) using the primer (5′[…] 3′) and the results shown in Table 1.

[2] = tested on: IFN-γ stimulated U937 cells; experiment: Phage binding to IFN-γ stimulated U937 cells; format: cell-based, human; settings: for % output / Output (number of bound phages): U937-INF-γ, input 5 × 10^7 TU; for Output (number of bound phages): 3×10^6 cells, acid eluate
Procedure: (§2) Cells: U937 cells (ATCC CRL-1593) and K562 cells (ATCC CCL-243) were maintained in RPMI 1640 medium (Gibco laboratories) supplemented with 10% heat-inactivated FCS (Biological Industries, Beth Haemark), 2 mM L-glutamine, 100 U/ml penicillin (Gibco). Cells-were incubated at 5% CO2 and 37° C. at density ranging from 10^5 to 10^6 cells/ml.
To increase FcγRI expression the U937-cells were treated with 100 U/ml IFN-γ for 40 hours.
as §1
(§3) Cell binding of individual phages: Phage expressing the peptide CLRSGLGC were analysed for binding unstimulated U937 cells, IFN-γ stimulated U937 cells, as well as K562 cells. Both U937 and […]. Whereas INF-γ stimulated U937 cells express an increased number of FcγRI, K562-cells preferentially express FcγRII. 5×10^7 TU of individual phage clones were added to 3×10^6 cells in pan-wash buffer, incubated and eluted as described above.

unstimulated U937 cells = experiment: Phage binding to unstimulated U937 cells; format: cell-based, human; settings: input 5 × 10^7 TU; for Output (number of bound phages): 3×10^6 cells
Procedure: as §2, §1, §3

K562 cells = experiment: Phage binding to K562 cells; format: cell-based, human; settings: input 5 × 10^7 TU; for Output (number of bound phages): 3×10^6 cells
Procedure: as §2, §1, §3

[3] = biological target: T3, FcFcR (recombinant dimeric soluble human FcγRI) (Homo sapiens, UniProt P12314); experiment: Binding of phage displayed peptides to recombinant dimeric FcγRI (FcFcR) immobilised via protein A
T3 construct: the extracelluar part of the human FcγRI genetically fused to human IgG4; made in house; host or cells: mouse myeloma cell line NSO (lysate of transfected cells, not purified)
T3 sequence (P12314 16-292 limits assumed): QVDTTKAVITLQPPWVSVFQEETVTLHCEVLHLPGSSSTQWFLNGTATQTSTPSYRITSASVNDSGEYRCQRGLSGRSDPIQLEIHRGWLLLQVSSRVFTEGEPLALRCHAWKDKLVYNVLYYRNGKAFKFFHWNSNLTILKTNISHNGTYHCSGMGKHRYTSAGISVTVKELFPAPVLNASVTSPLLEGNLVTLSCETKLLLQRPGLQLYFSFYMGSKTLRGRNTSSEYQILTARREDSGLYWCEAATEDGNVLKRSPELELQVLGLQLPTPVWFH
Procedure: (§4) Protein A was immobilised in wells at 10 μg/ml in a volume of 200 μl at 4° C. overnight (ON). The wells were blocked with 1% BSA in PBS for 1 h at room temperature (RT). Lysate from FcFcR-transfected and untransfected cells were added to the wells and incubated at RT for 2 h. The wells were washed and new lysate was added zero, one or two times following 2 h incubation at RT. The wells were washed 7 times with PBS/0.5% Tween 20. 200 μl biotinylated human IgG3 in PBS (1 μg/ml) was added to the wells. The wells were washed as above and binding of biotinylated IgG3 was detected with streptavidin and […] (FIG. 2).
(§5) Wells were coated as described above with lysate from FcFcR transfected NSO cells added three times. Phages displaying the peptide CLRSGLGC were added to the wells and incubated at RT for 1.5 h. The wells were washed 8 times with PBS/0.5% Tween 20. Bound phages were eluted by incubation with 200 μl 0.1M HCl-glycine pH 2.2 for 10 min. and neutralised with 17 μl 0.1M Tris pH 8.8. The number of bound phages were determined as E. coli K91K TU's (Table 4).

[4] = Phage binding to control wells (protein A with lysate from untransfected NSO cells; protein A blocked with BSA)
Procedure: as §4, §5

SC = biological target: T4, SC (Homo sapiens, UniProt P01833); experiment: Inhibition assay of SC binding phages; settings: phages CWTSGARWRLC and CVVWMGFQQVC pre incubated with competitor
T4 construct: “secretory component”—the extracellular portion of the poly Ig receptor; from tissue; host or cells: human colostrum
T4 sequence (P01833 19-603 limits assumed): as the sequence (P01833 19-603 limits assumed) above
Procedure: Inhibition assay of SC binding phages: Nunc MaxiSorb 96 wells plates were coated with 30 μg/ml of purified colostrum SC at 4° C. ON. The plates were blocked in 1% milk powder for 1 h at RT before adding phage. Phage were pre incubated with […] polymeric IgA (pIgA), pIgM or Streptococcus pneumoniae secretory IgA binding protein (SpsA) in PBS/1% milk powder. SpsA is an streptococcal produced SC binding protein (Hammerschmidt et al. Mol Microbiol 1997 sep 25 (6): 1113-24). After incubation for 1.5 h at RT the plates were washed 6 times before HRP/Anti-M13 conjugate (Pharmacia) 1:4000 in PBS with 1% milk powder was added. 6 times of washing with PBS/0.05% Tween were followed by the ABTS substrate solution. The ABTS-HRP reaction was read in a microtiter plate reader set at 405 nm. All samples were run in duplicates.

In the case of CAWHYRFCGAAHSADGACREVFLVC, the “binding to the poly Ig receptor” value [1] is reported as “shown to bind the poly Ig receptor” and the “SC binding of single phage clones (ELISA)” value (“SC binding … (ELISA)” below) [1] is reported as “positive”.
With CFPVGRATC the “binding to the FcγRI receptor” value (FcγRI receptor) was “shown to bind the FcγRI receptor”.
In the case of “CGPGGTVGYTC [CONTROL, control phage displaying an irrelevant insert (…), reference compound]”, the “% output” value [2] is reported as less than 0.0004%, the “Output (number of bound phages)” value [2] is reported as <2 × 10^2 TU and the “% output” value (unstimulated U937 cells) is reported as less than 0.0004%. The “Output (number of bound phages)” value (unstimulated U937 cells) was <2 × 10^2 TU, the “% output” value (K562 cells) was less than 0.0004% and the “Output (number of bound phages)” value (K562 cells) was <2 × 10^2 TU.
For CGRVNTWLPQC, the “binding to the FcγRI receptor” value (FcγRI receptor) was “shown to bind the FcγRI receptor”.
In the case of CLRSGAGC, the “binding to the FcγRI receptor” value (FcγRI receptor) is reported as “shown to bind the FcγRI receptor”.
In the case of CLRSGANC, the “binding to the FcγRI receptor” value (FcγRI receptor) is reported as “shown to bind the FcγRI receptor”.
In the case of CLRSGLGC, the “times more phages eluted compared to the irrelevant control phage” value ([2]; IFN-γ stimulated U937 cells) is reported as “More than 500 times”, the “% output” value [2] is reported as 0.2% and the “Output (number of bound phages)” value [2] is reported as 1 × 10^5 TU. The “binding to IFN-γ stimulated U937 cells compared to unstimulated U937 cells and K562 cells” value ([2]; same number of cells) was “bound significantly better to IFN-γ stimulated U937 cells”, the “% output” value (unstimulated U937 cells) was 0.028% and the “Output (number of bound phages)” value (unstimulated U937 cells) was 1.4 × 10^4 TU. The “% output” value (K562 cells) was 0.02%, the “Output (number of bound phages)” value (K562 cells) was 1.4 × 10^4 TU and the “binding to wells with immobilised FcFcR compared to wells with no FcR activity” value [3] was “significant better binding”. For the same substance, the “% output” value ([3]; lysate from FcFcR transfected cells) was 0.3%, the “Output (number of bound phages)” value ([3]; lysate from FcFcR transfected cells, input 2.5 × 10^8) was 6.8 × 10^5 TU and the “% output” value [4] was 0.05%. The “Output (number of bound phages)” value ([4]; input 2.5 × 10^8) was 1.2 × 10^5 TU and the “binding to the FcγRI receptor” value (FcγRI receptor) was “shown to bind the FcγRI receptor”.
For CLRSGLHC, the “binding to the FcγRI receptor” value (FcγRI receptor) was “shown to bind the FcγRI receptor”.
In the case of CLRSGRAC, the “binding to the FcγRI receptor” value (FcγRI receptor) is reported as “shown to bind the FcγRI receptor”.
In the case of CLRSGRGC, the “binding to the FcγRI receptor” value (FcγRI receptor) is reported as “shown to bind the FcγRI receptor”.
For CLRSGSGC, the “binding to the FcγRI receptor” value (FcγRI receptor) was “shown to bind the FcγRI receptor”.
For CLYGDELC, the “binding to the FcγRI receptor” value (FcγRI receptor) was “shown to bind the FcγRI receptor”.
With CQDPICFCGADGACYCTSRNC the “binding to the poly Ig receptor” value [1] was “shown to bind the poly Ig receptor” and the “SC binding … (ELISA)” value [1] was “positive”.
With CRRATAGCAGC the “binding to the FcγRI receptor” value (FcγRI receptor) was “shown to bind the FcγRI receptor”.
In the case of CRRSGQGC, the “binding to the FcγRI receptor” value (FcγRI receptor) is reported as “shown to bind the FcγRI receptor”.
With CRSMVMLRVRC the “binding to the FcγRI receptor” value (FcγRI receptor) was “shown to bind the FcγRI receptor”.
In the case of CSAGRACCRYC, the “binding to the FcγRI receptor” value (FcγRI receptor) is reported as “shown to bind the FcγRI receptor”.
In the case of CSWIPGVGLVC, the “binding to the FcγRI receptor” value (FcγRI receptor) is reported as “shown to bind the FcγRI receptor”.
For CVVWMGFQQVC, the “binding to the poly Ig receptor” value [1] was “shown to bind the poly Ig receptor” and the “SC binding … (ELISA)” value [1] was “SC binding”.
In the case of CWTSGARWRLC, the “binding to the poly Ig receptor” value [1] is reported as “shown to bind the poly Ig receptor” and the “SC binding … (ELISA)” value [1] is reported as “SC binding”.
For SpsA, the “blocking of phage binding to SC” value (SC) was “blocked phage from binding to the receptor for both peptides”.
